Laboratory results taken from patent US20030148951A1.

Molecular target: putative EMR2 ligand
Assay: flow cytometry on human monocyte-derived macrophages; abolished by EGTA

- percent of cells bound: 45 to 50%
Substance: biotinylated soluble EMR2(EGF-1,2,3,4,5) protein-fluorescent bead complex (from UniProt Q9UHX3 24-260) (receptor)
